In patent US20140051106:
Substitutions are numbered along the chain they refer to. Names and notes keep the numbering of the source.

What was measured:
[1] = biological target: T1, S. Cerevisiae RPS23 peptide
T1 chain: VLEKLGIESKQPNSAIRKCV

RPS23 20mer K18A = biological target: T2, RPS23 20mer K18A
T2 chain: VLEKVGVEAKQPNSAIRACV

RPS23 20mer E08A = biological target: T3, RPS23 20mer E08A
T3 chain: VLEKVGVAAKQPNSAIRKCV

RPS23 20mer S14A = biological target: T4, RPS23 20mer S14A
T4 chain: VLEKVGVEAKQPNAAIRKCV

[2] = biological target: histone fragment peptides
RPS23 20mer K04A = biological target: T5, RPS23 20mer K04A
T5 chain: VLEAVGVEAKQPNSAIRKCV

[3] = biological target: T6, HIF-1α C-terminal oxygen dependent degradation domain (CODD) peptide, Q16665
T6 chain: DLDLEMLAPYIPMDDDFQL

[4] = biological target: RPS23 peptide (peptide fragment of the RPS23 protein)
RPS23 20mer K10A = biological target: T7, RPS23 20mer K10A
T7 chain: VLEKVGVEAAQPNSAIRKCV

RPS23 20mer Q11A = biological target: T8, RPS23 20mer Q11A
T8 chain: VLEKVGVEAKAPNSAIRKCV

RPS23 20mer G06A = biological target: T9, RPS23 20mer G06A
T9 chain: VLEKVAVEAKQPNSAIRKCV

RPS23 20mer P12A = biological target: T10, RPS23 20mer P12A
T10 chain: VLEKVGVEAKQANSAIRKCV

RPS23 20mer P12I = biological target: T11, RPS23 20mer P12I
T11 chain: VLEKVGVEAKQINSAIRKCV

S. Pombe RPS23 peptide = biological target: T12, S. Pombe RPS23 peptide
T12 chain: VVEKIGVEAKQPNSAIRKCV

RPS23 20mer C19A = biological target: T13, RPS23 20mer C19A
T13 chain: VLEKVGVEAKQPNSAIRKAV

RPS23 16mer = biological target: T14, RPS23 16mer
T14 chain: EKVGVEAKQPNSAIRK

RPS23 20mer V05A = biological target: T15, RPS23 20mer V05A
T15 chain: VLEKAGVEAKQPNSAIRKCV

RPS23 20mer N13A = biological target: T16, RPS23 20mer N13A
T16 chain: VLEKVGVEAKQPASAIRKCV

RPS23 20mer V07A = biological target: T17, RPS23 20mer V07A
T17 chain: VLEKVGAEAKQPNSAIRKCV

RPS23 20mer I16A = biological target: T18, RPS23 20mer I16A
T18 chain: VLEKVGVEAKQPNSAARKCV

[5] = biological target: T19, HIF-1α C-terminal transcriptional activation domain (CTAD) peptide, Q16665
T19 chain: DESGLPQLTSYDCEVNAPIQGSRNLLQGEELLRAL

[6] = biological target: T20, HIF-1α N-terminal oxygen dependent degradation domain (NODD) peptide, Q16665
T20 chain: DALTLLAPAAGDTIISLDF

B1: recombinant full-length human OGFOD1 (protein)
chain: MNGKRPAEPGPARVGKKGKKEVMAEFSDAVTEETLKKQVAEAWSRRTPFSHEVIVMDMDPFLHCVIPNFIQSQDFLEGLQKELMNLDFHEKYNDLYKFQQSDDLKKRREPHISTLRKILFEDFRSWLSDISKIDLESTIDMSCAKYEFTDALLCHDDELEGRRIAFILYLVPPWDRSMGGTLDLYSIDEHFQPKQIVKSLIPSWNKLVFFEVSPVSFHQVSEVLSEEKSRLSISGWFHGPSLTRPPNYFEPPIPRSPHIPQDHEILYDWINPTYLDMDYQVQIQEEFEESSEILLKEFLKPEKFTKVCEALEHGHVEWSSRGPPNKRFYEKAEESKLPEILKECMKLFRSEALFLLLSNFTGLKLHFLAPSEEDEMNDKKEAETTDITEEGTSHSPPEPENNQMAISNNSQQSNEQTDPEPEENETKKESSVPMCQGELRHWKTGHYTLIHDHSKAEFALDLILYCGCEGWEPEYGGFTSYIAKGEDEELLTVNPESNSLALVYRDRETLKFVKHINHRSLEQKKTFPNRTGFWDFSFIYYE
- Hydroxylation [1]: ++
- Hydroxylation (RPS23 20mer K18A): ++
- Hydroxylation (RPS23 20mer E08A): ++
- Hydroxylation (RPS23 20mer S14A): +
- MALDI-TOF, demethylation [2]: Neither did we find that OGFOD1 catalyzed N^ε-methyl-lysine or arginyl demethylation of histone fragment peptides
- Hydroxylation (E. Coli S12 peptide): -
- Hydroxylation (RPS23 20mer K04A): ++
- Hydroxylation (MALDI assay) [3]: No hydroxylation of the PHD2 C-terminal oxygen-dependent degradation domain (CODD) substrate by OGFOD1 was observed under the same assay conditions.
- MALDI-TOF, +16 Da mass shift characteristic of hydroxylation [3]: None of these potential substrates displayed evidence of a +16 Da mass shift characteristic of hydroxylation.
- 2OG turnover assay [4]: Activity is also stimulated significantly in the presence of a peptide fragment of the RPS23 protein.
- MALDI mass spectrometry, +16 mass shift [4]: a clear +16 mass shift was observed upon incubation of RPS23 peptide with wild-type OGFOD1
- Hydroxylation (RPS23 20mer K10A): ++
- Hydroxylation (RPS23 20mer Q11A): ++
- Hydroxylation (RPS23 20mer): ++
- amino acid analysis of the enzymatic product (RPS23 20mer): The results clearly demonstrate the presence of trans-3-hydroxyproline in the enzymatic product
- Hydroxylation (RPS23 20mer G06A): ++
- Hydroxylation (RPS23 20mer P12A): -
- Hydroxylation (RPS23 20mer P12I): -
- Hydroxylation (S. Pombe RPS23 peptide): ++
- Hydroxylation (RPS23 20mer C19A): ++
- Hydroxylation (RPS23 16mer): +
- Hydroxylation (RPS23 20mer V05A): ++
- Hydroxylation (RPS23 20mer N13A): +
- Hydroxylation (RPS23 20mer V07A): ++
- Hydroxylation (RPS23 20mer I16A): ++
- MALDI-TOF, +16 Da mass shift characteristic of hydroxylation [5]: None of these potential substrates displayed evidence of a +16 Da mass shift characteristic of hydroxylation.
- MALDI-TOF, +16 Da mass shift characteristic of hydroxylation [6]: None of these potential substrates displayed evidence of a +16 Da mass shift characteristic of hydroxylation.

B2: H155A mutant of full-length human OGFOD1 (protein)
chain: MGSSHHHHHHSSGLVPRGSHMASMNGKRPAEPGPARVGKKGKKEVMAEFSDAVTEETLKKQVAEAWSRRTPFSHEVIVMDMDPFLHCVIPNFIQSQDFLEGLQKELMNLDFHEKYNDLYKFQQSDDLKKRREPHISTLRKILFEDFRSWLSDISKIDLESTIDMSCAKYEFTDALLCADDELEGRRIAFILYLVPPWDRSMGGTLDLYSIDEHFQPKQIVKSLIPSWNKLVFFEVSPVSFHQVSEVLSEEKSRLSISGWFHGPSLTRPPNYFEPPIPRSPHIPQDHEILYDWINPTYLDMDYQVQIQEEFEESSEILLKEFLKPEKFTKVCEALEHGHVEWSSRGPPNKRFYEKAEESKLPEILKECMKLFRSEALFLLLSNFTGLKLHFLAPSEEDEMNDKKEAETTDITEEGTSHSPPEPENNQMAISNNSQQSNEQTDPEPEENETKKESSVPMCQGELRHWKTGHYTLIHDHSKAEFALDLILYCGCEGWEPEYGGFTSYIAKGEDEELLTVNPESNSLALVYRDRETLKFVKHINHRSLEQKKTFPNRTGFWDFSFIYYE
- MALDI mass spectrometry, +16 mass shift [4]: no such change was detectable with the H155A or D157A variants under standard assay conditions

B3: D157A mutant of full-length human OGFOD1 (protein)
chain: B2 chain with D180A
- MALDI mass spectrometry, +16 mass shift [4]: no such change was detectable with the H155A or D157A variants under standard assay conditions
